Results reported in patent US20200087373A1 (UNIVERSITY OF COPENHAGEN, published 2020).
Ends that are not written are not given here. * marks the point of attachment. C16 diacid = O=C(O)CCCCCCCCCCCCCCC(=O)*; Stearoyl = CCCCCCCCCCCCCCCCCC(=O)*; Palmitoyl = CCCCCCCCCCCCCCCC(=O)*

T1: human GIP receptor (human, UniProt P48546 22-466)
T1 sequence (looked up): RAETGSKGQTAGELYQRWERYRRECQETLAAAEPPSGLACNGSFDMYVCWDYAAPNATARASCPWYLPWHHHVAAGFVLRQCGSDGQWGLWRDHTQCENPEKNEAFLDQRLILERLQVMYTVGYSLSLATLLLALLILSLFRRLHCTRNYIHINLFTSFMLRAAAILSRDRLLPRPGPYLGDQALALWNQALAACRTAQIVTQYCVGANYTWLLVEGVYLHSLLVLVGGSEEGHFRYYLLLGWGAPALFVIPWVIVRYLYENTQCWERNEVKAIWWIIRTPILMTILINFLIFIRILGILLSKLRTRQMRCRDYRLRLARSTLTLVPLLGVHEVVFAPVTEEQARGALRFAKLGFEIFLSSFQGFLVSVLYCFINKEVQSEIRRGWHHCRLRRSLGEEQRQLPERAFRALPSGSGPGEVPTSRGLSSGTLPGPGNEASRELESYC

B1: AT157 [hGIP(5-30)NH2[K16R; H18K; K30R]-C16diacid/18] (peptide)
peptide: TFISDYSIAMDRIK(C16 diacid)QQDFVNWLLAQR-NH2
modifications: N-terminus assumed
SMILES: CC[C@H](C)[C@H](NC(=O)[C@H](CO)NC(=O)[C@H](Cc1ccc(O)cc1)NC(=O)[C@H](CC(=O)O)NC(=O)[C@H](CO)NC(=O)[C@@H](NC(=O)[C@H](Cc1ccccc1)NC(=O)[C@@H](N)[C@@H](C)O)[C@@H](C)CC)C(=O)N[C@@H](C)C(=O)N[C@@H](CCSC)C(=O)N[C@@H](CC(=O)O)C(=O)N[C@@H](CCCNC(=N)N)C(=O)N[C@H](C(=O)N[C@@H](CCCCNC(=O)CCCCCCCCCCCCCCC(=O)O)C(=O)N[C@@H](CCC(N)=O)C(=O)N[C@@H](CCC(N)=O)C(=O)N[C@@H](CC(=O)O)C(=O)N[C@@H](Cc1ccccc1)C(=O)N[C@H](C(=O)N[C@@H](CC(N)=O)C(=O)N[C@@H](Cc1c[nH]c2ccccc12)C(=O)N[C@@H](CC(C)C)C(=O)N[C@@H](CC(C)C)C(=O)N[C@@H](C)C(=O)N[C@@H](CCC(N)=O)C(=O)N[C@@H](CCCNC(=N)N)C(N)=O)C(C)C)[C@@H](C)CC
B2: AT161 [hGIP(5-30)NH2[H18K]-C18/18] (peptide)
peptide: TFISDYSIAMDKIK(Stearoyl)QQDFVNWLLAQK-NH2
modifications: N-terminus assumed
SMILES: CCCCCCCCCCCCCCCCCC(=O)NCCCC[C@H](NC(=O)[C@@H](NC(=O)[C@H](CCCCN)NC(=O)[C@H](CC(=O)O)NC(=O)[C@H](CCSC)NC(=O)[C@H](C)NC(=O)[C@@H](NC(=O)[C@H](CO)NC(=O)[C@H](Cc1ccc(O)cc1)NC(=O)[C@H](CC(=O)O)NC(=O)[C@H](CO)NC(=O)[C@@H](NC(=O)[C@H](Cc1ccccc1)NC(=O)[C@@H](N)[C@@H](C)O)[C@@H](C)CC)[C@@H](C)CC)[C@@H](C)CC)C(=O)N[C@@H](CCC(N)=O)C(=O)N[C@@H](CCC(N)=O)C(=O)N[C@@H](CC(=O)O)C(=O)N[C@@H](Cc1ccccc1)C(=O)N[C@H](C(=O)N[C@@H](CC(N)=O)C(=O)N[C@@H](Cc1c[nH]c2ccccc12)C(=O)N[C@@H](CC(C)C)C(=O)N[C@@H](CC(C)C)C(=O)N[C@@H](C)C(=O)N[C@@H](CCC(N)=O)C(=O)N[C@@H](CCCCN)C(N)=O)C(C)C
B3: AT293 [hGIP(5-30)NH2[T5KK]-C16diacid/5] (peptide)
peptide: K(C16 diacid)FISDYSIAMDKIHQQDFVNWLLAQK-NH2
modifications: N-terminus assumed
SMILES: CC[C@H](C)[C@H](NC(=O)[C@H](CO)NC(=O)[C@H](Cc1ccc(O)cc1)NC(=O)[C@H](CC(=O)O)NC(=O)[C@H](CO)NC(=O)[C@@H](NC(=O)[C@H](Cc1ccccc1)NC(=O)[C@@H](N)CCCCNC(=O)CCCCCCCCCCCCCCC(=O)O)[C@@H](C)CC)C(=O)N[C@@H](C)C(=O)N[C@@H](CCSC)C(=O)N[C@@H](CC(=O)O)C(=O)N[C@@H](CCCCN)C(=O)N[C@H](C(=O)N[C@@H](Cc1c[nH]cn1)C(=O)N[C@@H](CCC(N)=O)C(=O)N[C@@H](CCC(N)=O)C(=O)N[C@@H](CC(=O)O)C(=O)N[C@@H](Cc1ccccc1)C(=O)N[C@H](C(=O)N[C@@H](CC(N)=O)C(=O)N[C@@H](Cc1c[nH]c2ccccc12)C(=O)N[C@@H](CC(C)C)C(=O)N[C@@H](CC(C)C)C(=O)N[C@@H](C)C(=O)N[C@@H](CCC(N)=O)C(=O)N[C@@H](CCCCN)C(N)=O)C(C)C)[C@@H](C)CC
B4: AT156 [hGIP(5-30)NH2[H18K]-C16diacid/18] (peptide)
peptide: TFISDYSIAMDKIK(C16 diacid)QQDFVNWLLAQK-NH2
modifications: N-terminus assumed
SMILES: CC[C@H](C)[C@H](NC(=O)[C@H](CO)NC(=O)[C@H](Cc1ccc(O)cc1)NC(=O)[C@H](CC(=O)O)NC(=O)[C@H](CO)NC(=O)[C@@H](NC(=O)[C@H](Cc1ccccc1)NC(=O)[C@@H](N)[C@@H](C)O)[C@@H](C)CC)C(=O)N[C@@H](C)C(=O)N[C@@H](CCSC)C(=O)N[C@@H](CC(=O)O)C(=O)N[C@@H](CCCCN)C(=O)N[C@H](C(=O)N[C@@H](CCCCNC(=O)CCCCCCCCCCCCCCC(=O)O)C(=O)N[C@@H](CCC(N)=O)C(=O)N[C@@H](CCC(N)=O)C(=O)N[C@@H](CC(=O)O)C(=O)N[C@@H](Cc1ccccc1)C(=O)N[C@H](C(=O)N[C@@H](CC(N)=O)C(=O)N[C@@H](Cc1c[nH]c2ccccc12)C(=O)N[C@@H](CC(C)C)C(=O)N[C@@H](CC(C)C)C(=O)N[C@@H](C)C(=O)N[C@@H](CCC(N)=O)C(=O)N[C@@H](CCCCN)C(N)=O)C(C)C)[C@@H](C)CC
B5: AT126 [hGIP(5-30)NH2-C16/30] (peptide)
peptide: TFISDYSIAMDKIHQQDFVNWLLAQK(Palmitoyl)-NH2
modifications: N-terminus assumed
SMILES: CCCCCCCCCCCCCCCC(=O)NCCCC[C@H](NC(=O)[C@H](CCC(N)=O)NC(=O)[C@H](C)NC(=O)[C@H](CC(C)C)NC(=O)[C@H](CC(C)C)NC(=O)[C@H](Cc1c[nH]c2ccccc12)NC(=O)[C@H](CC(N)=O)NC(=O)[C@@H](NC(=O)[C@H](Cc1ccccc1)NC(=O)[C@H](CC(=O)O)NC(=O)[C@H](CCC(N)=O)NC(=O)[C@H](CCC(N)=O)NC(=O)[C@H](Cc1c[nH]cn1)NC(=O)[C@@H](NC(=O)[C@H](CCCCN)NC(=O)[C@H](CC(=O)O)NC(=O)[C@H](CCSC)NC(=O)[C@H](C)NC(=O)[C@@H](NC(=O)[C@H](CO)NC(=O)[C@H](Cc1ccc(O)cc1)NC(=O)[C@H](CC(=O)O)NC(=O)[C@H](CO)NC(=O)[C@@H](NC(=O)[C@H](Cc1ccccc1)NC(=O)[C@@H](N)[C@@H](C)O)[C@@H](C)CC)[C@@H](C)CC)[C@@H](C)CC)C(C)C)C(N)=O
B6: AT125 [hGIP(5-30)NH2-C16/16] (peptide)
peptide: TFISDYSIAMDK(Palmitoyl)IHQQDFVNWLLAQK-NH2
modifications: N-terminus assumed
SMILES: CCCCCCCCCCCCCCCC(=O)NCCCC[C@H](NC(=O)[C@H](CC(=O)O)NC(=O)[C@H](CCSC)NC(=O)[C@H](C)NC(=O)[C@@H](NC(=O)[C@H](CO)NC(=O)[C@H](Cc1ccc(O)cc1)NC(=O)[C@H](CC(=O)O)NC(=O)[C@H](CO)NC(=O)[C@@H](NC(=O)[C@H](Cc1ccccc1)NC(=O)[C@@H](N)[C@@H](C)O)[C@@H](C)CC)[C@@H](C)CC)C(=O)N[C@H](C(=O)N[C@@H](Cc1c[nH]cn1)C(=O)N[C@@H](CCC(N)=O)C(=O)N[C@@H](CCC(N)=O)C(=O)N[C@@H](CC(=O)O)C(=O)N[C@@H](Cc1ccccc1)C(=O)N[C@H](C(=O)N[C@@H](CC(N)=O)C(=O)N[C@@H](Cc1c[nH]c2ccccc12)C(=O)N[C@@H](CC(C)C)C(=O)N[C@@H](CC(C)C)C(=O)N[C@@H](C)C(=O)N[C@@H](CCC(N)=O)C(=O)N[C@@H](CCCCN)C(N)=O)C(C)C)[C@@H](C)CC

These binders were tested against T1, human GIP receptor (assay: cell-based or functional assay).
For B1, the “cAMP agonism” value was 3 nM, the “cAMP agonism, EC50 (log)” value was -8 log M and the “cAMP agonism, Emax” value was 12. For the same binder, the “cAMP antagonism” value was 7 nM and the “cAMP antagonism, log” value was -8.1 log M. B2 was tested, and the “cAMP agonism” value was 1060 nM, the “cAMP agonism, EC50 (log)” value was -6 log M and the “cAMP agonism, Emax” value was 7. The “cAMP antagonism” value was 252 nM and the “cAMP antagonism, log” value was -6.6 log M. In the case of B3, the “cAMP agonism, Emax” value is reported as 0, the “cAMP antagonism” value is reported as 14 nM and the “cAMP antagonism, log” value is reported as -7.8 log M. In the case of B4, the “cAMP agonism” value is reported as 2 nM, the “cAMP agonism, EC50 (log)” value is reported as -9 log M and the “cAMP agonism, Emax” value is reported as 12. For the same binder, the “cAMP antagonism” value was 12 nM and the “cAMP antagonism, log” value was -7.9 log M.

The binders below were run against T1, human GIP receptor (assay: 125I-hGIP competition binding, COS-7 cells expressing hGIPR;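 further: nonspecific binding taken as radioligand bound by untransfected cells, binding buffer with or without 2% HSA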).
Method: After incubation, the cells were washed twice in ice-cold binding buffer (+/−2% HSA) and lysed using 200 mM NaOH with 1% SDS for 30 min. Nonspecific binding was determined as the binding of radioactive ligand to untransfected cells.
In the case of TFISDYSIAMDK(C18 fatty acyl)IHQQDFVNWLLAQK-NH2 [AT128 [hGIP(5-30)NH2-C18/16]], the IC50 is reported as 466 nM and the “log IC50” value is reported as -6.3 log M. B5 was tested, and the IC50 was 7790 nM and the “log IC50” value was -5.1 log M. With B6 the IC50 was 714 nM and the “log IC50” value was -6.1 log M.
